Target: transgene murine adenylylcyclase isoform VI (ACVI) with HA-tag, from the truncated construct of Example 5-2 (murine) (UniProt Q01341)
Experiment: cell-based or functional assay

Chain of transgene murine adenylylcyclase isoform VI (ACVI) with HA-tag, from the truncated construct of Example 5-2 (murine) (Q01341 whole entry, the tested form may be a part, canonical isoform): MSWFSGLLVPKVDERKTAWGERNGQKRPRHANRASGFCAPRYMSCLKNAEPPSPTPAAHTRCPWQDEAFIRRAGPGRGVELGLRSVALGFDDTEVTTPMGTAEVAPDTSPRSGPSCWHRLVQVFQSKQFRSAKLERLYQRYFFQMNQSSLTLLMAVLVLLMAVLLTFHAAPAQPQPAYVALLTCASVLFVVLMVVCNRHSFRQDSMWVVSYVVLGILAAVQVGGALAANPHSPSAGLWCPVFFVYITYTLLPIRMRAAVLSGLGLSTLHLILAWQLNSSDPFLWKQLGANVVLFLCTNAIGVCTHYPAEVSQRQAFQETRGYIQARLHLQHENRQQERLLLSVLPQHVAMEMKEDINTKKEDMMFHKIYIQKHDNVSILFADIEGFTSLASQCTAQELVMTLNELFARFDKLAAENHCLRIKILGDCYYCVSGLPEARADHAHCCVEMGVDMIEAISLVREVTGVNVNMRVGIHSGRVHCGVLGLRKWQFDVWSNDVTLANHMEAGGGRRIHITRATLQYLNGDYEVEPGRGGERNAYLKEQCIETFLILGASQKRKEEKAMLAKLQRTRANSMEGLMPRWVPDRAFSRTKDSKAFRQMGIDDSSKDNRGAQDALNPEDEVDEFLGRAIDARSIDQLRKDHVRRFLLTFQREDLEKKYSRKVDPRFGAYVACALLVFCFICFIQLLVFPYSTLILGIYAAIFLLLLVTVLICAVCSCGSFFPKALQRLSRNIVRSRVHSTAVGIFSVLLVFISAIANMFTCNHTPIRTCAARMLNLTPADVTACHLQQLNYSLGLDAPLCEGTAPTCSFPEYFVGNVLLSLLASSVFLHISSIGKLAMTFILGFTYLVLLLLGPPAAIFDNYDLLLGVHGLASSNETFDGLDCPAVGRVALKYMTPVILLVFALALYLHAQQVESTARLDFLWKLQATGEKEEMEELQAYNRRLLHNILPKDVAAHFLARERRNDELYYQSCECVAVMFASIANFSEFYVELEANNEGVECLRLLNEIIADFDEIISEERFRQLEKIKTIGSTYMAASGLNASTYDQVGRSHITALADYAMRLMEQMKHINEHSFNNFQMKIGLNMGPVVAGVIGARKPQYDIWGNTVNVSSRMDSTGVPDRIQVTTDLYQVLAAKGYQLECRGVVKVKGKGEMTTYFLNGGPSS

Net GTP gamma S-stimulated forskolin binding: 447 cpm
Substance: Gs (stimulatory GTP-binding protein) of neonatal rat cardiac myocytes (from UniProt P63095 2-394)

Reference: patent US20020103147A1
